According to PMC10557602 (bioRxiv, 2023):

Biological target: SARS-CoV-2 nsp12 (SARS-CoV-2, UniProt P0DTD1)
Assay: cryo-EM structure

B1: SARS-CoV-2 nsp9 (natural protein)
chain: NNELSPVALRQMSCAAGTTQTACTDDNALAYYNTTKGGRFVLALLSDLQDLKWARFPKSDGTGTIYTELEPPCRFVTDTPKGPKVKYLYFIKGLNNLNRGMVLGSLAATVRLQ
binding result: binds

B2: RNAylated-nsp9 (20mer RNA) (natural protein)
chain: B1 chain
binding result: binds
